The labels stand for the following.
B1: Hairpin Ribozyme (parent)
chain: GUCCUCUUUCACGUGCGCGUGAAAGAGAGAAGUGAACCAGAGAAACACACGUUGUGGUAUAUUACCUGGUA

Variants of B1 are the subject of this data set. Kind of data set: self-cleavage, relative activity (ratio to wild type); higher = more cleavage; co-transcriptional.
As for C12G G13C, the self-cleavage was 0.944.

As to A11C A23U, the self-cleavage was determined as 0.6. On to A30U C66A, for which the self-cleavage was determined as 0.096. The value for G40U U52A was 0.207; that for C50G G68U was 0.22; that for G27A A45G was 0.196. As for A59G G68U, the self-cleavage came to 0.235.

Regarding A11U C48G, the self-cleavage was 0.0875.

In the case of A11C U14G, the self-cleavage came out at 0.661.

On to C4U A44C, for which the self-cleavage worked out at 0.102. The value for U14G G56A was 0.103; that for G32C C46G was 0.0694. Then A26C A61U, with 0.184; and C46U U58A, with 0.0874; and G29A U33C, with 0.0835.

With A39U U55A, the self-cleavage was found to be 0.155. Then U14A G56U, with 0.205.

On to U33C U60C, for which the self-cleavage was 0.128. The value for C6A G29C was 0.123; that for A41C U62A was 0.325. Regarding C12A U52C, the self-cleavage was 0.768. Turning to C50U U67A, the self-cleavage amounted to 0.2. The value for U14A U20A was 0.67. On to G29U, for which the self-cleavage is 0.132.

Regarding G32A A35C, the self-cleavage was 0.177. The value for C16U A36G was 1.34. Then G29U G40U, with 0.147; and A31G C65G, with 0.17. With U5C A11G, the self-cleavage came to 0.481. The value for G34A A64C was 0.349; that for C18U A36G was 1.15; that for A31G U60G was 0.412.

With G17U A44U, the self-cleavage was determined as 0.0838. Then A28U G54A, with 0.32. Regarding U8G U62A, the self-cleavage was determined as 0.0946. Regarding G1A U62A, the self-cleavage was determined as 0.192. Consider G1C U67A, for which the self-cleavage was determined as 0.109. Then C18G, with 0.931; and C10G G34A, with 0.978. The value for U20A U60C was 0.995.

In the case of C12G G27C, the self-cleavage was 0.226. Then U58G U67C, with 0.0792; and A22C G34U, with 1.49; and U33C A47U, with 0.0811. As for A22U C37A, the self-cleavage was determined as 0.352. The value for U2G A23G was 0.318.

For C38G U63A, the self-cleavage came out at 0.117.

Turning to C38G U63G, the self-cleavage came out at 0.231. The value for G15A U20A was 0.847; that for G29A A45U was 0.0463. Then C46A C65A, with 0.13; and U2G A71U, with 0.283; and C10G C66A, with 0.0906. Turning to G25C C65U, the self-cleavage was determined as 0.324.

For A11G U58A, the self-cleavage was found to be 0.557.

In the case of A30C U62A, the self-cleavage was found to be 0. The value for A30U G42U was 0.119; that for A28C G54A was 0.301. Then A11U A44G, with 0.144; and A28U U70G, with 0.338. Then C10G C18U, with 0.842; and C10G G69C, with 0.23. As to C18A A39G, the self-cleavage is 0.395. In the case of U14G U60C, the self-cleavage was 1.23. Turning to U20C G56A, the self-cleavage is 0.255. The value for U5A C18U was 0.554; that for C3A G17C was 0.375; that for G32A C50G was 0.179. Turning to U5G G68C, the self-cleavage worked out at 0. Then U8C C10G, with 0.114; and G21A G27U, with 0.227.

Regarding U62A A64U, the self-cleavage came out at 0.197.

Regarding G57C U67A, the self-cleavage was 0.257. Then A30C A44U, with 0.106; and C16A C48A, with 0.123. Then U9G A35U, with 0.631; and U5C U55C, with 0.2; and A35U U67C, with 0.176.

In the case of C3A A31C, the self-cleavage amounted to 0.144. The value for C37U A45U was 0.11. A11C C37A: the self-cleavage is 0.37. Then C12U A26U, with 0.591; and G40A A41C, with 0.274; and A39G U63A, with 0.111.

In the case of U52A G56A, the self-cleavage was 0.256.

As for G34C U70A, the self-cleavage came out at 1.12. The value for U14C G56A was 0.143; that for C37A C50U was 0.138; that for U9C C48U was 0.0794. Turning to G29U G57A, the self-cleavage was 0.172.

Consider A41U U63A, for which the self-cleavage was determined as 0.105. Then C6A U60C, with 0.793.

As to A22C G69U, the self-cleavage is 0.152. Then A22C G69A, with 0.448. Then G29U A44C, with 0.251; and A61G U62C, with 0.0932; and G32A G54A, with 0.156. The value for C16G G21C was 0.285. For the variant U8C A44G, the self-cleavage was determined as 0.0935. The value for C3U A43U was 0.207; that for C6A U33A was 0.129. With A28C A49U, the self-cleavage was 0.192. With C10U G54C, the self-cleavage turned out to be 0.444. The value for G13C U20G was 0.531.

Take U7G A35U: the self-cleavage turned out to be 0.921. Then U8G C46A, with 0.134. Then A22G A31U, with 0.226.

For the variant A36U C46G, the self-cleavage was determined as 0.0439. The value for G15C A47C was 0.295; that for U5A A22C was 0.339. Then C6A G25U, with 0.763; and C46U G51U, with 0.256; and C6U A61C, with 0.296. Then A47C U67C, with 0.148; and G29A C46U, with 0.238.

On to G17C A35U, for which the self-cleavage came to 0.44. Then U8G C16G, with 0.395; and C12U U63A, with 0.249; and A43U G69U, with 0.174. The value for C66A U67G was 0.091; that for U8G C65A was 0.97. For U2A C46A, the self-cleavage came out at 0.143. The value for C18U U63A was 0.229. Then C12G U60A, with 0.748; and G25U A45U, with 0.162. As for U52A G69A, the self-cleavage amounted to 0.464. The value for A44C U55C was 0.172; that for U7G U55C was 0.152; that for G15C C65A was 0.928.

With U9A A39C, the self-cleavage is 0.423. The value for A24C G27A was 0.341; that for C12A A30U was 0.172; that for G13A C16A was 0.82.

As for G19A G32A, the self-cleavage was 0.131. The value for C10U A22G was 0.635; that for U14G G40U was 0.2.

On to C3G A49C, for which the self-cleavage turned out to be 0.0939. The value for G25C A28G was 0.883; that for C6A A43G was 0.223. For G19A A64C, the self-cleavage was 0.181. The value for A31G U55C was 0.28; that for A28U C37A was 0.143; that for C37A U62A was 0.133. The value for C6U G15U was 0.814. Then G19U C65G, with 0.405; and G32A A36U, with 0.111; and C46G G54A, with 0.134. In the case of U7A U63A, the self-cleavage is 0.181. The value for C37U C66U was 0.264. Then U14C U53G, with 0.936; and U7C U55A, with 0.167. Then U8C G34A, with 1.18. For C3G A44G, the self-cleavage was 0.15. The value for G1C G34C was 0.211; that for U7C A35G was 0.931; that for C6G G19U was 0.201. Take G13A G42A: the self-cleavage amounted to 0.194.

Take G51C U70G: the self-cleavage was 0.704.

Take C10U C16U: the self-cleavage was determined as 0.871. The value for G27A was 0.454; that for U58G U62A was 0.232. For G1C C37G, the self-cleavage turned out to be 0.0832. U63G: the self-cleavage is 0.171. Then A39G A45G, with 0.0935; and A35C C48A, with 0.103. Turning to G32A U58G, the self-cleavage was found to be 0.16. With C38U U67A, the self-cleavage was found to be 0.119.

The record behind these values is the RNAGym collection of RNA variant scans (doi:10.7554/elife.80360).
